Test results as given in paper PMC10153361, “Mechanism of imidazole inhibition of a GH1 β‐glucosidase” (FEBS Open Bio, 2023).

Substrate: O=[N+]([O-])c1ccc(O[C@@H]2O[C@H](CO)[C@@H](O)[C@H](O)[C@H]2O)cc1
Test: purified protein
Format: biochemical, Spodoptera frugiperda
Conditions: 100 mM phosphate pH 6.0, 30 °C

B1: Sfβgly (GH1 β-glucosidase from Spodoptera frugiperda) (Spodoptera frugiperda) (protein)
chain: QQRRFPDDFLFGTATASYQIEGAWDEDGKGENIWDYMVHNTPEVIRDLSNGDIAADSYHNYKRDVEMMRELGLDAYRFSLSWARILPTGMANEVNPAGIAFYNNYIDEMLKYNITPLITLYHWDLPQKLQELGGFANPLISDWFEDYARVVFENFGDRVKMFITFNEPREICFEGYGSATKAPILNATAMGAYLCAKNLVTAHAKAYYLYDREFRPVQGGQCGITISVNWFGPATPTPEDEMAAELRRQGEWGIYAHPIFSAEGGFPKELSDKIAEKSAQQGYPWSRLPEFTEEEKAFVRGTSDLIGVNHYTAFLVSATERKGPYPVPSLLDDVDTGSWADDSWLKSASAWLTLAPNSIHTALTHLNNLYNKPVFYITENGWSTDESRENSLIDDDRIQYYRASMESLLNCLDDGINLKGYMAWSLMDNFEWMEGYIERFGLYEVDFSDPARTRTPRKAAFVYKHIIKHRVVDYEYEPETMVMTIDEGH
notes: recombinant, E. coli BL21(DE3), vector pET46, Ni-NTA purified; secreted digestive midgut enzyme; catalytic residues E187 and E399
- Km: 1730 ± 40 µM
- kcat: 1.33 ± 0.333 s⁻¹
